Measured values: patent US7745417B2, “Nucleosides or nucleotides having novel unnatural bases and use thereof” (RIKEN, priority 2002, dated 2010)
Like-named read-outs stand apart in the source and are kept apart here.

Assays:
T7 RNA polymerase = T7 RNA polymerase (Escherichia phage T7, UniProt P00573); conditions: for misincorporation: 5IyTP +; for 5Iyp (number of nucleotides in transcription product): transcribed with 0.25 mM 5IyTP (+), theoretical number in parentheses
Procedure: The reaction composition of T7 transcription may be the same as described in Ohtsuki et al., 2001. Details are as follows: 40 mM Tris-HCl (pH 8.0), 5 mM DTT, 24 mM MgCl2, 2 mM spermidine, 0.01% TritonX-100, 10 mM GMP, 1 mM NTPs, 0-0.25 mM 5IyTP, 0.2 μl/μl template DNA, and 2.5 U/μl T7 RNA polymerase (TaKaRa). After enzymatic reaction at 37° C. for 6 hours, each reaction product was purified by electrophoresis on an 8% polyacrylamide-7M urea gel.
When T7 transcription reaction is performed in the presence of [α-^32P]ATP or [α-^32P]GTP, a nucleoside 3′-phosphate (Np) 5′-terminal to A or G is labeled with ^32P. Each gel-purified RNA was completely digested into Np by RNase T2 (Sigma). If 5Iy is introduced at residue 84 or 92, the nucleoside 3′-phosphate of 5Iy (5IyTp) is labeled with ^32P via [α-^32P]GTP, while if 5Iy is introduced at residue 87, 5IyTp is labeled via [α-^32P]ATP (FIG. 5, FIG. 6-b). For base composition analysis of 5Iy-containing RNAs, each of the completely digested products was separated by 2D-TLC and determined for each nucleotide content.
More specifically, to completely digest RNA, 0.75 μl RNase T2 solution (5 units/μl; 100 mM NaOAc pH 4.5, 10% glycerol) was added to 4.25 μl aqueous solution containing the labeled RNA and a 0.25 OD E. coli-derived tRNA mixture (Sigma), followed by overnight enzymatic reaction at 37° C. A part of the reaction solution was spotted onto a 10 cm×10 cm TLC plate (Funacell SF; Funakoshi Co., Ltd., Japan) and developed in two dimensions. Developing solutions for the first and second dimensions are isobutyric acid/ammonia/water (66:1:33 by volume) and 2-propanol/hydrochloric acid/water (70:15:15 by volume), respectively. The developed spots were detected and quantified using a bioimaging analyzer (BAS2500, Fuji Photo Film Co., Ltd., Japan).
Each value was calculated from the following equation. The theoretical numbers of nucleotides are in parentheses.

Raf-1 RBD = molecular target: T1, Raf-1 RBD (Homo sapiens, UniProt P04049); assay: Binding efficiency to Raf-1 RBD by filter binding method; conditions: Raf-1 RBD/RNA=300:5 nM; triplicate average, standard deviation in parentheses
T1 construct: human Raf-1 RBD (amino acid residues 51-131); GST (N); made in house; host or cells: E. coli
Procedure: In this example, to examine changes in binding activity to Raf-1 RBD, each RNA site-selectively introduced with 5Iy was measured for binding efficiency by a filter binding method (Table 2). […] This means that the inventive method for site-selective introduction of 5Iy is advantageous.
(§1) The binding efficiency to Raf-1 RBD was measured for each RNA by a filter binding method (Raf-1 RBD/RNA=300:5 nM). Standard deviations are in parentheses. ^a RNA 9A transcribed from s-free template DNA in the presence of 0.4 mM 5IUTP. ^b RNA 9A transcribed from s-free template DNA in the presence of 0.25 mM 5IyTP.
Each RNA whose 5′-terminus was ^32P -labeled was warmed in Buffer A at 75° C. for 3 minutes and then allowed to stand at room temperature for 10 minutes or longer to form the secondary structure of RNA. On the other hand, to prepare Raf-1 RBD, human Raf-1 RBD (amino acid residues 51-131) was expressed as a GST (glutathione transferase)-fusion protein in E. coli cells and purified from the supernatant of crushed cells by column chromatography. Rat RGL RBD (amino acid residues 632-734) [Koyama et al., 1996] and human B-Raf RBD (amino acid residues 149-226) were also expressed as GST-fusion proteins in E. coli cells and purified in the same manner.

[1] = Filter binding % (filter binding method, Table 2); conditions: triplicate average, standard deviation in parentheses
Procedure: as §1

Raf-1 GST-RBD = molecular target: T2, Raf-1 GST-RBD (Homo sapiens, UniProt P04049); assay: Gel shift assay of binding to GST-RBD; conditions: 5% non-denaturing polyacrylamide gel
T2 construct: human Raf-1 RBD (amino acid residues 51-131); GST (N); made in house; host or cells: E. coli
Procedure: The product (XL) obtained by crosslinking reaction an equal concentration (0.1 μM) mixture of 9A(5Iy87) and Raf-1 RBD was purified from a gel and analyzed for binding between XL and GSTRBD by gel shift assay. As a control of RNA 9A dimer, RNA 9A molecules were also linked in tandem to newly prepare RNA 9A×2 (200 nucleotides in total length), followed by gel shift assay. RNA 9A×2 is an RNA molecule of 200 nucleotides in total length that has two essential regions of RNA 9A (residues 1-80) in its molecule. It was prepared by transcription reaction using T7 RNA polymerase (Epicentre) and subcloned into vector pCR®II-TOPO (Invitrogen).
Each RNA whose 5′-terminus was ^32P-labeled (0.8 pmol) was warmed in 20 μl Buffer A at 75° C. for 3 minutes and then allowed to stand at room temperature for 10 minutes or longer to form the secondary structure of RNA. […] Each aliquot was supplemented with 5 μl Raf-1 GST-RBD solution (containing, in addition to RBD, 160 μg/ml BSA, 1 mM DTT and 10% glycerol in Buffer A), incubated at 37° C. for 30 minutes, and then analyzed by electrophoresis on a 5% non-denaturing polyacrylamide gel (acrylamide:bisacrylamide=39:1). […]

[2] = tested on: Ras-induced Raf-1 activation; assay: Ras-induced Raf-1 activation in a cell-free system; type: biochemical; conditions: membrane fraction of Sf9 cells expressing Ras and Raf-1, cytoplasmic fraction of HEK293 cells
[3] = molecular target: T3, Raf-1 RBD/Ras interaction (Homo sapiens, UniProt P04049); assay: Inhibition of Raf-1 RBD/Ras interaction; type: biochemical; conditions: compared with aptamer from N60 pool
T3 construct: GST (N); made in house; host or cells: E. coli
From the text: In this reference example, with the aim of designing a novel RNA molecule selectively regulating Ras/Raf-1 interaction in cellular signal transduction, RNA aptamers specifically binding to Raf-1 RBD were isolated by in vitro selection techniques. An RNA aptamer obtained from a pool containing random sequences of 60 nucleotides (N60) inhibited Raf-1 RBD/Ras interaction. […] In response to this, the selection technique was partially modified and used for selection on a pool containing newly designed RNA random sequences of 45 nucleotides (N45). The RT-PCR products were each subcloned into TA cloning vector pCR®II-TOPO using a TOPO TA Cloning Kit Dual (Invitrogen), and nucleotide sequences were determined for individual clones using a dRhodamine Terminator Cycle Sequencing Ready Reaction Kit (Applied Biosystems).

[4] = molecular target: B-Raf RBD/Ras interaction (Homo sapiens, UniProt P15056)
Chain of B-Raf RBD/Ras interaction (P15056 149-226): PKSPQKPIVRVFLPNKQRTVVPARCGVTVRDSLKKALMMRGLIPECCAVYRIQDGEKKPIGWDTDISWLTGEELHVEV

Chain of T7 RNA polymerase (P00573 whole entry): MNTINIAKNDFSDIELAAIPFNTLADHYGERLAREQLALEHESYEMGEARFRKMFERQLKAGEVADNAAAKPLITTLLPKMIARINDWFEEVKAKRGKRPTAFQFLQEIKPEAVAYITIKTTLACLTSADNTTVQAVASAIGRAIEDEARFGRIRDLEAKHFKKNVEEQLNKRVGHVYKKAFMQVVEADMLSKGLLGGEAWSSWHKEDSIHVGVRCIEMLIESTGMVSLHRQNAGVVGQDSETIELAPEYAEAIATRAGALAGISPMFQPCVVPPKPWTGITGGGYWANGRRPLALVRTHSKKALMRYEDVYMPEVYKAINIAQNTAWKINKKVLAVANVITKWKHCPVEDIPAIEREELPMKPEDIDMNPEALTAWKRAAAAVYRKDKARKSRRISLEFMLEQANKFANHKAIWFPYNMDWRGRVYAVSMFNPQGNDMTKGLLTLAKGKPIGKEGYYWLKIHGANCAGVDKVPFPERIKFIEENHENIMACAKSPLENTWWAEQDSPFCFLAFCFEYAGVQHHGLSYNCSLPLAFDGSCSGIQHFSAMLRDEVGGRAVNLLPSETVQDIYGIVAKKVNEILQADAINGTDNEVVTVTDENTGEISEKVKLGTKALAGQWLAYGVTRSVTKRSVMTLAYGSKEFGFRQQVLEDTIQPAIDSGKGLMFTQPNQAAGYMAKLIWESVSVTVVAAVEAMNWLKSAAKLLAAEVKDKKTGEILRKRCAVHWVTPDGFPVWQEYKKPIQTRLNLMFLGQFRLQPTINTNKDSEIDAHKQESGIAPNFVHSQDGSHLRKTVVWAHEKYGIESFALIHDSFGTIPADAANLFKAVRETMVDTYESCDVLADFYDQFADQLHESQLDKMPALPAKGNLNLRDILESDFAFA

B1: RNA 9A: anti-(Raf-1) RNA aptamer binding to Raf-1 RBD, 100 bases, SEQ ID NO: 1 (nucleic acid)
chain: GGGAGUGGAGGAAUUCAUCGAGGCAUAUGUCGACUCCGUCUUCCUUCAAACCAGUUAUAAAUUGGUUUUAGCAUAUGCCUUAGCGACAGCAAGCUUCUGC
modifications: chemistry not given here
misincorporation (T7 RNA polymerase; [α-32P]ATP label): 0.45% | 5Iyp (number of nucleotides in transcription product) (T7 RNA polymerase; [α-32P]ATP label): 0.10(0) | misincorporation (T7 RNA polymerase; [α-32P]GTP label): 0.41% | 5Iyp (number of nucleotides in transcription product) (T7 RNA polymerase; [α-32P]GTP label): 0.09(0) | Raf-1 RBD binding % (Raf-1 RBD): 25 (5) % | Filter binding % [1]: 0.2 (0.1) % | complex formation with GST-RBD (gel shift pattern) (Raf-1 GST-RBD): 1:1 complex | inhibition of Ras-induced Raf-1 activation [2]: strongly inhibited | inhibitory capacity against Raf-1 RBD/Ras interaction [3]: higher inhibitory capacity | inhibition of B-Raf RBD/Ras interaction [4]: did not inhibit
